These results are taken from US12583895B2, “Polypeptides for restoring endothelial function and methods of use thereof” (Vanderbilt University, priority 2019, dated 2026).

Test [1] relates to rat aorta. Nature of the test: Endothelial-dependent relaxation of rat aorta after subfailure stretch injury, muscle bath. It is filed as cell-based. As to conditions: stretch about 2 times resting length, peptide 500 μM, 1 hour, room temperature. The method, then:
Freshly isolated rat aorta (RA) was subjected to subfailure stretch and incubated in PL in the absence (S) or presence of NiPp (500 μM) for 1 h at room temperature. […] The percent relaxation was determined as a change to the maximal PE-induced contraction. n=5 rats; #p<0.05, two-way ANOVA. […] Quantification of relative phosphorylation to total p38MAPK level is shown. N=10. *p<0.05, in one-way ANOVA with Tukey post-test. NiPp restores endothelial dysfunction and reduced p38 MAPK phosphorylation induced by stretch injury in RA.
Freshly isolated rat aorta was subjected to subfailure stretch (to haptic endpoint, approximately 2 times the resting length) and treated with NiPp, NiPp3, or scr3NiPp (500 μM) for 1 hour at room temperature. To determine the effect of injury on endothelial function, phenylephrine-precontracted tissues were treated with carbachol (CCH; 10^−8 to 10^−5M) and the percent relaxation was determined as a change to the maximal PE-induced contraction. Data are reported as mean responses±standard deviation. n=8. *p<0.05, two-way ANOVA with Tukey post-tests. There were significant differences between Stretch (S) vs. ctrl or NiPp-treated RA.
Measurement of endothelial-dependent relaxation. Rings of HSV or RA (1-2 mm) were suspended in a muscle bath containing a bicarbonate buffer (120 mM sodium chloride, 4.7 mM potassium chloride, 1.0 mM magnesium sulfate, 1.0 mM monosodium phosphate, 10 mM glucose, 1.5 mM calcium chloride, and 25 mM sodium bicarbonate, pH 7.4) equilibrated with 95% O2/5% CO2 at 37° C. for 1 h at a resting tension of 1 g, manually stretched to three times the resting tension, and maintained at resting tension for an additional 1 h.
This produced the maximal force tension relationship as previously described. […] Contractile responses were defined by stress, calculated using force generated by tissues as follows: stress (×10^5 N/m^2)=force (g)×0.0987/area, where area=wet weight (mg)/at maximal length (mm)]/1.055.
Relaxation was calculated as percent change in stress compared to the maximal PE-induced contraction (set as 100%). […]

Test [2] addresses p38 MAPKα (MAPK14) (Homo sapiens, UniProt Q16539). Nature of the test: SelectScreen kinase profiling. It is filed as biochemical. As to conditions: peptide 100 μM, single concentration. The method, then: FIGS. 14A and 14B show kinase profiling of polypeptides. NiPp, scr3NiPp, and NiPp3 were profiled against 490 kinases at 100 uM using the SelectScreen Kinase Profiling Service (www.thermofisher.com). […] NiPp inhibits MSK1 and p38MAPK alpha by >60%. These two kinases are central to the p38MAPK kinase signaling cascade that play important roles in stress and inflammatory responses. NiPp-specific inhibitory activity to p38 MAPK were not detected for NiPp3 (non-phosphorylated) or scr3NiPp (scrambled) polypeptides.
(§1) Kinase profiling. NiPp was dissolved in DMSO, screened at a single concentration of 100 μM using in vitro kinase assays (SelectScreen Kinase Profiling Service; ThermoFisher Scientific, Madison WI) including the Z'LYTE and Adapta kinase activity assays and the LanthaScreen Eu Kinase Binding Assay). Candidate interactions were predicted using STRING Version 11 (www.string-db-org) with the human database at confidence=0.7.
As injury leads to increased p38 MAPK phosphorylation and decreased Niban phosphorylation, one of the mechanisms by which NiPp restores function after endothelial injury can be kinase inhibition. A kinase profiling was performed using three different profiling platforms that measure activity and kinase/substrate binding. […]

The target in test [3] is CKD18 (Homo sapiens, UniProt Q07002). Description: SelectScreen kinase profiling. The note with it: NiPp 100 μM; kinases inhibited at >40% are listed. It is filed as biochemical. As to the method: as §1
Sequence of CKD18 (Q07002 whole entry): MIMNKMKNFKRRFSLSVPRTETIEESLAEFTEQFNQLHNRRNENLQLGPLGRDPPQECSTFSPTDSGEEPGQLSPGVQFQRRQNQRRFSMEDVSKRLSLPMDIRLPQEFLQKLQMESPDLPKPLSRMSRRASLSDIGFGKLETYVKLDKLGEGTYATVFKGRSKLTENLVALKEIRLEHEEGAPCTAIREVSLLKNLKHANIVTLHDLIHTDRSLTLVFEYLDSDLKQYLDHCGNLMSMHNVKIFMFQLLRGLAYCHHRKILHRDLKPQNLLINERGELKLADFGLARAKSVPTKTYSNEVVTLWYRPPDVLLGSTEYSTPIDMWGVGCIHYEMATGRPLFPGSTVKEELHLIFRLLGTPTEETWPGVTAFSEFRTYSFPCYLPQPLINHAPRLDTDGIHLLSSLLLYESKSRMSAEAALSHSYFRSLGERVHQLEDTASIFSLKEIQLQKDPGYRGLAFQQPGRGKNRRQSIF
Sequence of CKD18 (Q8ND76 whole entry partner): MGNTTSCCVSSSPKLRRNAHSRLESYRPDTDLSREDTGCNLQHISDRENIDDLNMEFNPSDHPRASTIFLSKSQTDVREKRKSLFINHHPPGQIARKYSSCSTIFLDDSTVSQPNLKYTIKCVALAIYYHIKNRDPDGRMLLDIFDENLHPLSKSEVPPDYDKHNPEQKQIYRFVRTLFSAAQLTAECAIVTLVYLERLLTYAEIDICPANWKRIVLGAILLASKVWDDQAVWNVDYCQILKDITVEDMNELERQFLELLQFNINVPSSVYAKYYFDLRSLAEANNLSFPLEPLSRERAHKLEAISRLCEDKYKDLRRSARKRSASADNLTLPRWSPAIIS
(§2) As injury leads to increased p38 MAPK phosphorylation and decreased Niban phosphorylation, one of the mechanisms by which NiPp restores function after endothelial injury can be kinase inhibition. A kinase profiling was performed using three different profiling platforms that measure activity and kinase/substrate binding. Kinases of which activity or substrate binding were inhibited by NiPp (100 μM) at >40% are listed and shown in a kinase dendrogram (FIGS. 14A, 14B, 19A and 19B).
(§3) The top two candidate kinase targets of NiPp were mitogen- and stress-activated kinase 1 (MSK1; also known as RPS6KA5) and p38 MAPKα (MAPK14), which were inhibited by 66% and 61%, respectively. MSK1 is an AGC kinase of the RSK family that is phosphorylated by ERK and p38 MAPK in response to cellular stress. Other kinases inhibited by the NiPp include CKD18 of the CMGC kinase family), FGFR1 of the TK family, and the PIK3R3 kinase (FIGS. 19A and 19B).

The target of test [4] is FGFR1 (Homo sapiens, UniProt P11362). Nature of the test: SelectScreen kinase profiling. It is filed as biochemical. As to conditions: NiPp 100 μM; kinases inhibited at >40% are listed. As to the method: as §1, §2, §3
Sequence of FGFR1 (P11362 22-822): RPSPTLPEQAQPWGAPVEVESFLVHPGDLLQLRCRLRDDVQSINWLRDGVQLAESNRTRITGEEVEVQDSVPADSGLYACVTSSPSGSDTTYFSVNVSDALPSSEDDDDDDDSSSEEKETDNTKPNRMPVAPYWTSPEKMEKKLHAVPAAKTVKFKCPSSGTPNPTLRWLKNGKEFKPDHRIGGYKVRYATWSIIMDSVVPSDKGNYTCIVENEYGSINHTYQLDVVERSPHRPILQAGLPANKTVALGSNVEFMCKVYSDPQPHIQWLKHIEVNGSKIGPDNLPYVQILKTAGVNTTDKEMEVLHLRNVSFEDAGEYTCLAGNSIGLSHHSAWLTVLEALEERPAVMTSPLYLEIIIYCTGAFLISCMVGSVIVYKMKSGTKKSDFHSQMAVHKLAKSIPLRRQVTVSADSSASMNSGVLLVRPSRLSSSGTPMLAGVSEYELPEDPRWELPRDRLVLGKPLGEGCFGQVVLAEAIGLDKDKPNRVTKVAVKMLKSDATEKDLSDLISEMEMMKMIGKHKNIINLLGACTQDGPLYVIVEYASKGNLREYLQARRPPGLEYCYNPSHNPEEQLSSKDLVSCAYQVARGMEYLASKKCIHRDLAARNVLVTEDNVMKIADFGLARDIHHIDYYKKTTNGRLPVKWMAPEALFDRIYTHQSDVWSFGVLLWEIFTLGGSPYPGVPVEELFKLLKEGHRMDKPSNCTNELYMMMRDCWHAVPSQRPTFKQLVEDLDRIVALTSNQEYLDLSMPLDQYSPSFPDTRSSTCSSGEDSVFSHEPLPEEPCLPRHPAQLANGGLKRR
For test [5], the target named is PIK3R3 kinase (Homo sapiens, UniProt Q92569). Nature of the test: SelectScreen kinase profiling. It is filed as biochemical. As to conditions: NiPp 100 μM; kinases inhibited at >40% are listed. As to the method:
as §1, §2, §3

Non-standard residues stand in square brackets, D forms with d. No end group written: not given here. pS = N[C@@H](COP(=O)(O)O)C(=O)O

Sequence of p38 MAPKα (MAPK14) (Q16539 whole entry): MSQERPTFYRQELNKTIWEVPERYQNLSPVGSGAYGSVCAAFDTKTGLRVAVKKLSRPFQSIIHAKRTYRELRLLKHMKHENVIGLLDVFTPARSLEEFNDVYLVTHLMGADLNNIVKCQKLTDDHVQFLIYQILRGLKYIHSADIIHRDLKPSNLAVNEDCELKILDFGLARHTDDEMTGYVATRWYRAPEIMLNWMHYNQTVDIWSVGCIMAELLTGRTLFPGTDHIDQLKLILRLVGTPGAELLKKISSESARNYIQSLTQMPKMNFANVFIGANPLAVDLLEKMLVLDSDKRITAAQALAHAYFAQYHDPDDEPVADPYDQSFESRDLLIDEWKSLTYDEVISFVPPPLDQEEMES
Sequence of PIK3R3 kinase (P42336 whole entry partner): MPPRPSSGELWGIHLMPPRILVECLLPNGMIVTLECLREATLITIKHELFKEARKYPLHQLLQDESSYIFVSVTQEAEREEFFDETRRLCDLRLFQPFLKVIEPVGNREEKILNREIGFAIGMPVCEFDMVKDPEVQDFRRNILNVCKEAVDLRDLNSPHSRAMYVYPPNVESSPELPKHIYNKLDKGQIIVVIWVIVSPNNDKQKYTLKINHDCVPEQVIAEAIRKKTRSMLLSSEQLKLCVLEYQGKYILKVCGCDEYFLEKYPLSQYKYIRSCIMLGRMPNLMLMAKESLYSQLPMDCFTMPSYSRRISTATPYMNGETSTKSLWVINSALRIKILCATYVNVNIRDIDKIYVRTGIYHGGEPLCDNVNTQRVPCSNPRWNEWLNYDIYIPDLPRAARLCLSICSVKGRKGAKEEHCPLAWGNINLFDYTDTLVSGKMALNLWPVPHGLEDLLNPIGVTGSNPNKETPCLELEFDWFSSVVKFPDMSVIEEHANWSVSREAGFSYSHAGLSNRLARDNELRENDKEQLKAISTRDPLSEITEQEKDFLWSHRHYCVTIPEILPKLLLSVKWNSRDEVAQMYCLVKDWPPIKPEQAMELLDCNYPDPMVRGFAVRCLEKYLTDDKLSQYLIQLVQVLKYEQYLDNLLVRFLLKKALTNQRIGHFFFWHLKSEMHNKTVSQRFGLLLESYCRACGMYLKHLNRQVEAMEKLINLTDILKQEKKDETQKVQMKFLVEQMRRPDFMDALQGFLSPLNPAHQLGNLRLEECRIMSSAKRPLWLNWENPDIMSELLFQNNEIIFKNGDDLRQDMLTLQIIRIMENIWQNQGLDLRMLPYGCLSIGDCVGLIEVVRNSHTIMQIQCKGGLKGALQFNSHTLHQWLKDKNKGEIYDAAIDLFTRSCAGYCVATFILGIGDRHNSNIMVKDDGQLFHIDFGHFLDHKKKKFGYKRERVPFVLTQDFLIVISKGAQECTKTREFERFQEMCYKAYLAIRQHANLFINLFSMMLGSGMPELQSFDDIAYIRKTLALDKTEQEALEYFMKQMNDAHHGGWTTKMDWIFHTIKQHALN

Regarding “YARAAARQARAAGSPPLA(pS)AIARR (YARAAARQARAAGSPPLA[pS]AIARR) [scr3NiPp]”, in test [1], the “endothelial function (percent relaxation to carbachol) after subfailure stretch injury” value is recorded as “did not restore”. Also, the “% inhibition of p38 MAPKα” value in test [2] was “not detected”.

On to “YARAAARQARASPAARRA(pS)AILPG (YARAAARQARASPAARRA[pS]AILPG) [NiPp, Cell-permeant phosphopeptide mimetic of Niban: transduction domain … conjugated to the region surrounding serine 602 of Niban]”, for which the “endothelial function (percent relaxation to carbachol) after subfailure stretch injury” value in test [1] is reported as “restores”. Also, the “inhibition of CKD18” value in test [3] was “inhibited”. In addition, the “inhibition of FGFR1” value in test [4] was “inhibited”. In addition, the “inhibition of PIK3R3 kinase” value in test [5] is listed as “inhibited”.

With “YARAAARQARASPAARRASAILPG (not fully specified (residue 19)) [NiPp3]”, the “endothelial function (percent relaxation to carbachol) after subfailure stretch injury” value in test [1] is on record as “did not restore”. The “% inhibition of p38 MAPKα” value in test [2] was “not detected”.
